The record followed here is US20200277385A1.

Experiment [1] addresses human CD303 antigen expressed on cells (human) (UniProt Q8WTT0). Kind of experiment: flow cytometry on CAL-1 cells (experiment with BIIB059). Background: Flow cytometry measures light scatter and fluorescence of single cells or particles in a stream.
The target is the same in experiment [2]. Kind of experiment: flow cytometry on CAL-1 cells transfected with CD303 (about 40,000-50,000 CD303/cell).
Experiment [3] has the same target. Nature of the experiment: cell-based or functional assay.

human CD303 antigen expressed on cells (human), sequence (Q8WTT0 whole entry): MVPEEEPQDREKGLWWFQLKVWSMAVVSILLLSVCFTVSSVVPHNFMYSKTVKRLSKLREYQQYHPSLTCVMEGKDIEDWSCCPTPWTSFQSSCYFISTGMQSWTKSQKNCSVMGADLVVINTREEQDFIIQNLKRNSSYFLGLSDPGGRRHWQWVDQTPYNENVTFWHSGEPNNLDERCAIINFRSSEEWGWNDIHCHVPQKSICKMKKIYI

B1: humanized antibody BIIB059 (antibody, INN chains, looked up, V domains shown)
VH: DVQLVESGGGLVKPGGSLRLSCAASGFTFSTYTMSWVRQAPGKGLEWVATISPGDSFGYYYPDSVQGRFTISRDNAKNSLYLQMNSLRAEDTAVYYCTRDIYYNYGAWFAYWGQGTLVTVSS
VL: DIQLTQSPSSLSASVGDRVTITCKASQSVDYDGDSYMNWYQQKPGKAPKLLIYAASTLESGVPSRFSGSGSGTDFTLTISSLQPEDFATYYCQQANEDPRTFGQGTKVEIK
What is called EC50 is the concentration at which the effect is half-maximal. Regarding B1, in experiment [1], the Bmax (MFI) stood at 11.8 MFI and the half-maximal effective concentration (EC50) was 0.6 mg/L. For the same molecule, in experiment [2], the Bmax (MFI) was 382 MFI and the EC50 was 0.784 mg/L. In addition, in experiment [3], the ADCC Emax (% lysis), CAL-1 target cells amounted to 1.12 % lysis.
